The source of these data is paper PMC6241121, “hnRNPA2 mediated acetylation reduces telomere length in response to mitochondrial dysfunction”.

This series addresses hnRNPA2 WT (human, UniProt P22626-2 1-341). Description: EMSA; not given in the material. The note with it: protein: recombinant; tags: N-terminal 6xHis (pET28a).

Chain of hnRNPA2 WT (P22626 other isoform, or with tags, fused parts or gaps): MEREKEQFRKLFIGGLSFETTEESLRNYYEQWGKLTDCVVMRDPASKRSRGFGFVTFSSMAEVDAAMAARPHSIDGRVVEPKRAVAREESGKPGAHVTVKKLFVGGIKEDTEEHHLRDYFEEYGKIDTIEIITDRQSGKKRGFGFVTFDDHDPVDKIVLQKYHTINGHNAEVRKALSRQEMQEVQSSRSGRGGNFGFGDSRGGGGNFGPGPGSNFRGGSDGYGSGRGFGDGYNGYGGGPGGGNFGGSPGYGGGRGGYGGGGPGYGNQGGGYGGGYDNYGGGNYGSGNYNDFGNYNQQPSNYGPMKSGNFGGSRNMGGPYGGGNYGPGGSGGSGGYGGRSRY

For TTAGGGTTAGGGTTAGGGTTAGGGTTAGGG (ssDNA) [single-stranded telomeric DNA probe], the binding result is “binds”.
